Reference: paper PMC3753628, “Recognition and processing of double-stranded DNA by ExoX, a distributive 3′–5′ exonuclease”

Legend:
ExoX (NT167) [1] = target: T1, ExoX (NT167) (Escherichia coli K12, UniProt P0AEK0 1-167); assay: X-ray crystallography; 2 ExoX monomers per DNA; metal at MeA site; Crystals by hanging drop, 16 C: complex I 0.1 M Tris-HCl pH 8.0, 0.2 M NaCl, 20% PEG 3350; complexes II and III 0.1 M MES pH 6.3, 17% PEG 6000; protein:DNA 1:0.6, 30 min at 4 C, gel filtration; settings: protein: recombinant; (pET24a, Ni-NTA); chain copies: 2; blunt
T1 sequence: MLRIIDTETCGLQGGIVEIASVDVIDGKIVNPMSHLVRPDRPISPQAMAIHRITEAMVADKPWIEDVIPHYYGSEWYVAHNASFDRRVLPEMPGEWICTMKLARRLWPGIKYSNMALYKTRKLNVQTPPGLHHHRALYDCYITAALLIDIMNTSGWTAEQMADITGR

ExoX (NT167) [2] = target: T1, ExoX (NT167); assay: X-ray crystallography; Crystals by hanging drop, 16 C: complex I 0.1 M Tris-HCl pH 8.0, 0.2 M NaCl, 20% PEG 3350; complexes II and III 0.1 M MES pH 6.3, 17% PEG 6000; protein:DNA 1:0.6, 30 min at 4 C, gel filtration; settings: protein: recombinant; (pET24a, Ni-NTA); chain copies: 2; self-annealed, 2 copies of S2; 5' overhang 5 nt, mispaired 3' terminal nucleotides
ExoX (NT167) [3] = target: T1, ExoX (NT167); assay: X-ray crystallography; two undefined metal ions (MeA, MeB), probably inactive (Ni2+ or Na+); SeMet ExoX; 2:1 protein:DNA; Crystals by hanging drop, 16 C: complex I 0.1 M Tris-HCl pH 8.0, 0.2 M NaCl, 20% PEG 3350; complexes II and III 0.1 M MES pH 6.3, 17% PEG 6000; protein:DNA 1:0.6, 30 min at 4 C, gel filtration; settings: protein: recombinant; (pET24a, Ni-NTA; chain copies: 2; text says 17 bp)

B1: 12 bp blunt-ended dsDNA (complex II) (dsDNA)
DNA 1: CTCGAATCTACA
DNA 2: TGTAGATTCGAG
ExoX (NT167) [1]
  binding result: binds

B2: 3' recessed mismatch-containing dsDNA (complex III) (dsDNA)
DNA 1: GTCATTGTGGATCCGAG
DNA 2: GTCATTGTGGATCCGAG
ExoX (NT167) [2]
  binding result: binds

B3: 3' overhanging dsDNA (complex I) (dsDNA)
DNA 1: CGGATCCACAATGACCT
DNA 2: GTCATTGTGGATCCGAG
ExoX (NT167) [3]
  binding result: binds
